One protein from paper PMC11898079, “Single-Molecule Imaging of Wood Xylans on Surfaces and Their Interaction with GH11 Xylanase” (Biomacromolecules, 2025) can be followed below.

The series concerns the molecule itself. Briefly: high-speed atomic force microscopy (HS-AFM); xylanase alone on a clean mica surface, tapping mode, 100 mM sodium phosphate buffer pH 6; 2 uL of 12.5 ug/mL xylanase added into 80 uL buffer during imaging; self-association seen as transient dimers and trimers of single molecules on the surface.

“And” between values parts separate entries of the source, which are not always exact repeats. Identical values can stand only once.

B1: Endo-1,4-β-D-xylanase from Neocallimastix patriciarum (GH11) (enzyme)
chain: AEFQSFCSSASHSGQSVKVTGNKVGTIGGVGYELWADSGNNSATFYSDGSFSCTFQNAGDYLCRSGLSFDSTKTPSQIGRMKADFKLVKQNSSNVGYSYVGVYGWTRSPLVEYYIVDNWLSPFPPGDWVGNKKHGSFTIDGAQYTVYENTRTGPSIDGDTTFNQYFSIRQQARDCGTIDISAHFDQWEKLGMTMGKLHEAKVLGEAGNVNGGASGTADFPYAKVYIGD
notes: Endo-1,4-β-D-xylanase, glycoside hydrolase family 11, Neocallimastix patriciarum; printed Mw 25,800 g/mol; Commercial enzyme; also called GH11 xylanase; GH11 endoxylanase; source: bought: Megazyme Ltd
Consider B1, for which the “stoichiometry N” value is 2 and 3.
